Test results from US8357518B2, “Thermostable enzymes for the hydrolysis of mannan-containing polysaccharides” (The Board of Trustees of the University of Illinois, priority 2010, dated 2013).

Columns and labels:
Format in all cases: biochemical, Caldanaerobius polysaccharolyticus
[1] = substrate: OC[C@H]1O[C@@H](O[C@H]2[C@H](O)[C@@H](O)[C@H](O[C@H]3[C@H](O)[C@@H](O)[C@H](O[C@H]4[C@H](O)[C@@H](O)[C@H](O[C@H]5[C@H](O)[C@@H](O)[C@H](O[C@H]6[C@H](O)[C@@H](O)C(O)O[C@@H]6CO)O[C@@H]5CO)O[C@@H]4CO)O[C@@H]3CO)O[C@@H]2CO)[C@H](O)[C@@H](O)[C@@H]1O; experiment: Catalytic efficiency with oligosaccharides, HPAEC (Man5A-TM1); conditions: other: Man5A-TM1 0.3 μM, oligosaccharide 30 μM, citrate buffer 50 mM, pH 5.5, 5 min, triplicate
Procedure: (§1) Cloning, expression, and purification of Man5A-TM1, Man5A-TM2 and Man5B. C. polysaccharolyticus was cultured in TYG medium and DNA was isolated from mid-log cultures and purified using the Qiagen DNeasy Blood and Tissue kit with an integrated RNase treatment step. The genome of C. polysaccharolyticus was partially sequenced by the W. M. Keck Biotechnology Center at the University of Illinois at Urbana-Champaign. A Newbler assembly was generated which is comprised of ½ plate of FLX PE 454 data and ½ plate of 8 kb paired-end GSFLX Titanium data using a Genome Sequencer instrument from 454 Life Sciences (Branford, Conn.). The partial genome sequence was uploaded onto the Rapid Annotation using Subsystem Technology (RAST) server (Aziz et al., BMC Genomics, 9:75, 2008). Auto-annotation of the C. polysaccharolyticus partial genome sequence identified ORF0760 as a gene predicted to encode a bifunctional β-D-mannanase/endoglucanase (Man5B). Man5A was previously identified in a recombinant phage library of C. polysaccharolyticus genomic DNA, which was screened for endoglucanase activity (Cann et al., J Bacteriol, 181:1643, 1999) and the full sequence of this gene was also identified in the partial genome sequence for C. polysaccharolyticus.
(§2) The DNA sequence corresponding to man5B was amplified by the PicoMaxx high fidelity PCR kit using genomic DNA as the template with the primer set Man5B-Forward and Man5B-Reverse (Table 1-1). The primers were engineered to incorporate a 5′-[…] (SEQ ID NO: 54) extension in Man5B-F and a 5′-[…] (SEQ ID NO: 55) extension in Man5B-R, which facilitated subsequent directional cloning. The resultant man5B amplicon was then digested with T4 DNA polymerase exonuclease activity, annealed with a similarly digested pET-46b vector and introduced into E. coli JM109 by electroporation. Man5A-TM1 was amplified using genomic DNA as template with primers Man5A-TM1-F and Man5A-TM1-R (Table 1-1). The primer sets for Man5A-TM1 and Man5A-TM2 were designed to include 5′-NdeI and 3′-XhoI restriction sites for subsequent directional cloning. The resulting amplicons were then cloned into the pGEM-T vector via TA-cloning and subcloned in-frame with the hexahistidine (His6) encoding sequence of a modified pET-28a expression vector via its NdeI-XhoI polylinker site. The truncated protein Man5A-TM2 originally named ManA-SLH-CBD was cloned as described in a previous study (Cann et al., J Bacteriol, 181:1643, 1999). Expression of each of the resulting gene constructs yielded fusion proteins containing an N-terminal polyhistidine tag sequence to facilitate affinity purification via metal chelate chromatography. The resulting plasmid constructs pET46-Man5B, pET28a-Man5A-TM1, and pET-28a-Man5A-TM2 were sequenced to confirm the integrity of the cloned genes (W. M. Keck Center for Comparative and Functional Genomics at the University of Illinois at Urbana-Champaign).
The plasmid constructs were then introduced into E. coli BL-21 CodonPlus (DE3) RIL competent cells by heat shock, and grown overnight in lysogeny broth (LB) agar medium supplemented with ampicillin (100 μg/mL) and chloramphenicol (50 μg/mL) at 37° C. After 12 h, single colonies were selected and used to inoculate fresh LB (10 mL) supplemented with the antibiotics above at the same concentrations, followed by culturing with aeration for 8 h at 37° C. The pre-cultures were then inoculated into fresh LB (1 L) supplemented with ampicillin and chloramphenicol and the cultures were incubated at 37° C. with vigorous aeration (225 rpm/min). The cultures were grown to an optical density of 0.3 at 600 nm, and the temperature was shifted to 16° C. and gene expression was induced by the addition of 0.1 mM isopropyl β-D-thiogalactopyranoside (IPTG). […]

[2] = substrate: OC[C@H]1O[C@@H](O[C@H]2[C@H](O)[C@H](O)C(O)O[C@@H]2CO)[C@@H](O)[C@@H](O)[C@@H]1O; experiment: Catalytic efficiency with oligosaccharides, HPAEC (Man5B); conditions: other: Man5B 3 nM, oligosaccharide 30 μM, citrate buffer 50 mM, pH 5.5, 5 min, triplicate
Procedure: as §1, §2
(§3) The plasmid constructs were then introduced into E. coli BL-21 CodonPlus (DE3) RIL competent cells by heat shock, and grown overnight in lysogeny broth (LB) agar medium supplemented with ampicillin (100 μg/mL) and chloramphenicol (50 μg/mL) at 37° C. After 12 h, single colonies were selected and used to inoculate fresh LB (10 mL) supplemented with the antibiotics above at the same concentrations, followed by culturing with aeration for 8 h at 37° C. […]

[3] = substrate: OC[C@H]1O[C@@H](O[C@H]2[C@H](O)[C@@H](O)[C@H](O[C@H]3[C@H](O)[C@@H](O)[C@H](O[C@H]4[C@H](O)[C@@H](O)[C@H](O[C@H]5[C@H](O)[C@@H](O)C(O)O[C@@H]5CO)O[C@@H]4CO)O[C@@H]3CO)O[C@@H]2CO)[C@H](O)[C@@H](O)[C@@H]1O; experiment: as above; conditions: other: Man5B 3 nM, oligosaccharide 30 μM, citrate buffer 50 mM, pH 5.5, 5 min, triplicate
Procedure: as §1, §2, §3

[4] = substrate: OC[C@H]1O[C@H](OC[C@H]2OC(O)[C@@H](O)[C@@H](O)[C@@H]2O[C@@H]2O[C@H](CO)[C@@H](O)[C@H](O)[C@@H]2O)[C@H](O)[C@@H](O)[C@H]1O; experiment: as above; conditions: other: Man5B 3 nM, oligosaccharide 30 μM, citrate buffer 50 mM, pH 5.5, 5 min, triplicate
Procedure: as §1, §2, §3

[5] = substrate: OC[C@H]1O[C@H](OC[C@H]2OC(O)[C@@H](O)[C@@H](O)[C@@H]2O[C@@H]2O[C@H](CO)[C@@H](O[C@@H]3O[C@H](CO)[C@@H](O)[C@H](O)[C@@H]3O)[C@H](O)[C@@H]2O)[C@H](O)[C@@H](O)[C@H]1O; experiment: as above; conditions: other: Man5B 3 nM, oligosaccharide 30 μM, citrate buffer 50 mM, pH 5.5, 5 min, triplicate
Procedure: as §1, §2, §3

[6] = substrate: OC[C@H]1O[C@@H](O[C@H]2[C@H](O)[C@H](O)[C@H](O[C@H]3[C@H](O)[C@H](O)[C@H](O[C@H]4[C@H](O)[C@H](O)[C@H](O[C@H]5[C@H](O)[C@H](O)C(O)O[C@@H]5CO)O[C@@H]4CO)O[C@@H]3CO)O[C@@H]2CO)[C@@H](O)[C@@H](O)[C@@H]1O; experiment: as above; conditions: other: Man5B 3 nM, oligosaccharide 30 μM, citrate buffer 50 mM, pH 5.5, 5 min, triplicate
Procedure: as §1, §2, §3

B1: Caldanaerobius polysaccharolyticus endo-β-mannanase Man5A truncation mutant Man5A-TM1, SEQ ID NO: 28 (Caldanaerobius polysaccharolyticus) (protein)
chain: AGTSGDGRFHVVGNKIVDPDGKDFIIKGVNIQGYRSWEKRSVLQDVHLIADVWKFNTVRLNCFIGQNNWGEGTGANNDIDAIIKAFTAKKVVVEIDLHDTTGYPPLSNPPPAPGQPSLDQAIAWFKELAAKYKDNPYVWFNTMNEPGSSTAPLDPQWKVANEEIIKAIRSTGADNIIVVDGWSYANEGIEQNTPTVDEKRSAVLTYGQDLLNADSAKNTIFAFHNYNEGDIQKKVEDYIDRANAKGLYVFMEEYGKDYSDAAKEGVKSGLQAVMNKGAGRIYWNWDGYDLYDLTSGTGRGSGWEINKTDGSKPTNLSWVGDKIWDDNHGITPTFDDQNPKVDLALERLIANNNGFKAGDKVQFTTFLRNSGDLPIGKDSKVVVKFYVDGVQLGDPVEISGGIAVGQRIPVTSPELTVSKTDFTVKAVIDSSSTYADGAEDAVIENNWIEAAFNSTAPSSGYELVVTGIKITPDTVKEGDYVQAQVTVANQGPEATPVTNIIGWFYVNGYYYTLDDAAKSCAEQDNVTLKPGESITLSTKVKYRAAAPFNFSFVLENLYADDQNQSNNSITVNVPVKMGEGGVNMVSNPGFEDGLDSWQDWQQDMSAVPEAAHNGALGLKIGGGKAAGGGQDIPLKPNTTYILGAWAKFDSKPAGTFDVVVQYHLKDANNTYVQHILNFNETDWTYKQLLFTTPDVFGSTPQLALWKGDTSKANLYVDDVYLVEVSNLIVNGTAENGMDGWPDWGYPVSAVPEAAYGGTKGFKLSGGKQAGMGQKVALKPNTTYILGAWGKFTAKPGTYCDVIVQYHLKDANNTYVQNILRFTETDWTYKQVVFTTPDAFGSDPEFVLWKDDASNADFYADNITLVEV
kcat/Km [1]: 20000 ± 2000 M⁻¹ s⁻¹

B2: Caldanaerobius polysaccharolyticus endo-β-mannanase Man5B, wild type, SEQ ID NO: 31 (Caldanaerobius polysaccharolyticus) (protein)
chain: MKKYGFNFQWMYVWEEGREPEPPDKKALDFLAETGFNFVRIPVDYRFWTRNFDYFNPDKKVFEYIDLYLRECSARNIHMCLNLHRAPGYCINRNDIERDNLWLDKRAQDGFVYQWELFAKRYKGVSSKFLSFDLVNEPPNIGQYGLTRENHASLIIRTVEAIRKIDPDREIVIDGLGGGNIAMPELAHLGVVHSGRGYQPMALTHYQASWWDGHKGLPEPYYPDLLWQGKVWNKDTLREYYKPWRDLQQKGVNVHIGEFGCFNKTSNDVAIRWFEDVLSLYKEFEWGYSLWNFKGPFGIVEHGRPGAKYEYYRGFKVDRELLDLLVENRV
kcat/Km [2]: 230 ± 30 M⁻¹ s⁻¹ | kcat/Km [3]: 17000 ± 3000 M⁻¹ s⁻¹ | kcat/Km [4]: 1500 ± 200 M⁻¹ s⁻¹ | kcat/Km [5]: 30000 ± 7000 M⁻¹ s⁻¹ | kcat/Km [6]: (2.2 ± 0.3) × 10^2 mM^−1 s^−1
